Assay results taken from paper PMC6786761.

Substrate: CN1CCC[C@@H]1c1cccnc1
Test: oxygen electrode, initial rates
Format: biochemical, Paenarthrobacter nicotinovorans
Conditions: 0.1 M Na-HEPES pH 8.0, 0.1 M NaCl, 25 °C, 250 μM O2, apparent

B1: D-6-hydroxynicotine oxidase (DHNO) (Paenarthrobacter nicotinovorans) (protein)
chain: MSSKLATPLSIQGEVIYPDDSGFDAIANIWDGRHLQRPSLIARCLSAGDVAKSVRYACDNGLEISVRSGGHNPNGYATNDGGIVLDLRLMNSIHIDTAGSRARIGGGVISGDLVKEAAKFGLAAVTGMHPKVGFCGLALNGGVGFLTPKYGLASDNILGATLVTATGDVIYCSDDERPELFWAVRGAGPNFGVVTEVEVQLYELPRKMLAGFITWAPSVSELAGLLTSLLDALNEMADHIYPSVFVGVDENRAPSVTVCVGHLGGLDIAERDIARLRGLGRTVSDSIAVRSYDEVVALNAEVGSFEDGMSNLWIDREIAMPNARFAEAIAGNLDKFVSEPASGGSVKLEIEGMPFGNPKRTPARHRDAMGVLALAEWSGAAPGSEKYPELARELDAALLRAGVTTSGFGLLNNNSEVTAEMVAEVYKPEVYCRLAAVKREYDPENRFRHNYNIDPEGS
Km: 840 ± 120 µM
